# Results as given in patent US20240132578A1.
# Tests used:
# [1] = target: HIV-1 Env of isolate 92UG005 (Clade D) (HIV-1); experiment: cell-based or functional assay
# [2] = target: HIV-1 Env of isolate 92UG024 (Clade D) (HIV-1); experiment: cell-based or functional assay
# [3] = target: HIV-1 Env of isolate 93UG077 (Clade A) (HIV-1); experiment: cell-based or functional assay
# [4] = target: HIV-1 Env of isolate CMU02 (CRF01_AE) (HIV-1); experiment: cell-based or functional assay
# [5] = target: aMLV envelope (negative control); experiment: cell-based or functional assay
# [6] = target: HIV-1 Env of isolate IAVI-C18 (Clade C) (HIV-1); experiment: cell-based or functional assay
# [7] = target: HIV-1 93IN905 envelope protein (Env) on pseudotyped virus (HIV-1 strain 93IN905); experiment: cell-based or functional assay
# [8] = target: HIV-1 IAVI_C22 envelope protein (Env) on pseudotyped virus (HIV-1 strain IAVI C22); experiment: cell-based or functional assay
# [9] = target: HIV-1 JR-CSF envelope protein (Env) on pseudotyped virus (HIV-1 isolate JR-CSF) (UniProt P20871); experiment: cell-based or functional assay
# [10] = target: HIV-1 NL43 envelope protein (Env) on pseudotyped virus (HIV-1 strain NL43); experiment: cell-based or functional assay
# [11] = target: HIV-1 envelope glycoprotein (Env) of isolate 94UG103 (HIV-1); experiment: cell-based or functional assay
# [12] = target: JR-FL GP120 ΔV3 (HIV-1 JR-FL); experiment: ELISA, antigen-coated wells, mAb titrated; EC50 by nonlinear regression
# [13] = target: HIV-1 93UG077 Env (HIV-1); experiment: cell-based or functional assay
# HIV-1 APV17 Env (HIV-1) = experiment: cell-based or functional assay
# HIV-1 JRFL Env (HIV-1) = experiment: cell-based or functional assay
# [14] = target: HIV-1 envelope glycoprotein (Env) of isolate 92WR026, subtype A (HIV-1); experiment: cell-based or functional assay
# [15] = target: HIV-1 envelope glycoprotein (Env) of isolate MG RM-A-002, subtype A (HIV-1); experiment: cell-based or functional assay
# [16] = target: HIV-1 envelope glycoprotein (Env) of isolate MGRM-Chronic-B-010, on pseudovirus (HIV-1); experiment: cell-based or functional assay
# [17] = target: HIV-1 JR-CSF Env I323A (HIV-1 (isolate JR-CSF, clade B)) (UniProt P20871); experiment: cell-based or functional assay
# [18] = target: HIV-1 JR-CSF Env N295A (HIV-1 (isolate JR-CSF, clade B)) (UniProt P20871); experiment: cell-based or functional assay
# [19] = target: HIV-1 JR-CSF Env N332A (HIV-1 isolate JR-CSF) (UniProt P20871); experiment: cell-based or functional assay
# [20] = target: HIV-1 JR-CSF Env N355A (HIV-1 isolate JR-CSF) (UniProt P20871); experiment: cell-based or functional assay
# [21] = target: HIV-1 JR-CSF Env Q337A (HIV-1 isolate JR-CSF) (UniProt P20871); experiment: cell-based or functional assay
# [22] = target: HIV-1 JR-CSF Env T202A (HIV-1 (isolate JR-CSF)) (UniProt P20871); experiment: cell-based or functional assay
# [23] = target: HIV-1 JR-CSF Env T320A (HIV-1 (isolate JR-CSF, clade B)) (UniProt P20871); experiment: cell-based or functional assay
Substance,IC90 (neutralization of pseudovirus) [1] [µg/mL],IC90 (neutralization of pseudovirus) [2] [µg/mL],IC90 (neutralization of pseudovirus) [3] [µg/mL],IC90 (neutralization of pseudovirus) [4] [µg/mL],IC90 (neutralization of pseudovirus) [5] [µg/mL],IC90 (neutralization of pseudovirus) [6] [µg/mL],"IC50, Neutralizing Antibody Assay, Virus/Ab Incubation 1 hour [7] [µg/mL]","IC50, Neutralizing Antibody Assay, Virus/Ab Incubation 18 hour [7] [µg/mL]","IC50, Neutralizing Antibody Assay, Virus/Ab Incubation 1 hour [8] [µg/mL]","IC50, Neutralizing Antibody Assay, Virus/Ab Incubation 18 hour [8] [µg/mL]","IC50, Neutralizing Antibody Assay, Virus/Ab Incubation 1 hour [9] [ng/mL]","IC50, Neutralizing Antibody Assay, Virus/Ab Incubation 18 hour [9] [ng/mL]","IC50, Neutralizing Antibody Assay, Virus/Ab Incubation 1 hour [10] [µg/mL]","IC50, Neutralizing Antibody Assay, Virus/Ab Incubation 18 hour [10] [µg/mL]",further results
2F5 (antibody),> 50,34.4,33.4,12.2,> 50,–,–,–,–,–,–,–,–,–,–
2G12 (antibody),> 50,7.57,> 50,> 50,> 50,> 50,–,–,–,–,–,–,–,–,–
4E10 (antibody),> 50,23.7,> 50,13.4,> 50,> 50,–,–,–,–,–,–,–,–,–
1443_C16 (PG16) (TCN-116) (antibody),> 50,> 50,> 50,> 50,> 50,0.207,0.33,0.255,0.114,0.106,< 2.5,< 2.5,< 0.0025,4.99,–
1495_C14 (PGC14) (antibody),–,–,–,–,–,–,> 50,0.146,> 50,13.4,> 50000,> 50000,0.35,0.15,–
1496_C09 (PG9) (TCN-109) (antibody),–,–,–,–,–,0.866,0.144,0.0619,24.9,2.11,< 2.5,< 2.5,0.294,38,IC50 [11]: 0.34 µg/mL
4838_L06 (PGT-121) (antibody),–,–,–,–,–,–,–,–,–,–,–,–,–,–,EC50 [12]: > 10 µg/mL
4877_D15 (PGT-122) (antibody),–,–,–,–,–,–,–,–,–,–,–,–,–,–,"IC50, pseudovirus neutralization [13]: 0.191 µg/mL; IC50, pseudovirus neutralization (HIV-1 APV17 Env (HIV-1)): 0.522 µg/mL; IC50, pseudovirus neutralization (HIV-1 JRFL Env (HIV-1)): 0.0471 µg/mL; IC50, pseudovirus neutralization [14]: 0.036 µg/mL; IC50, pseudovirus neutralization [15]: 0.017 µg/mL; IC50, pseudovirus neutralization [16]: 0.018 µg/mL"
5114_A19 (PGT-128) (antibody),–,–,–,–,–,–,–,–,–,–,–,–,–,–,Fold IC50 increase relative to wild-type [17]: 3 fold; EC50 [12]: 7.8 µg/mL
5123_A06 (PGT-125) (antibody),–,–,–,–,–,–,–,–,–,–,–,–,–,–,"IC50, pseudovirus neutralization [13]: 0.0262 µg/mL; IC50, pseudovirus neutralization (HIV-1 APV17 Env (HIV-1)): 7.31 µg/mL; Fold IC50 increase relative to wild-type [18]: 0.8 fold; Fold IC50 increase relative to wild-type [19]: 2 fold; Fold IC50 increase relative to wild-type [20]: 1.2 fold; Fold IC50 increase relative to wild-type [21]: 0.8 fold; Fold IC50 increase relative to wild-type [22]: 0.8 fold; Fold IC50 increase relative to wild-type [23]: 0.8 fold; IC50, pseudovirus neutralization (HIV-1 JRFL Env (HIV-1)): 0.0156 µg/mL; IC50, pseudovirus neutralization [14]: 0.007 µg/mL; IC50, pseudovirus neutralization [15]: 0.013 µg/mL; IC50, pseudovirus neutralization [16]: 0.006 µg/mL"
